Consider 41 sequences from the nanobody polyreactivity screen of Harvey et al. (2022).

The data set is described as follows: yeast display, Sf9 membrane polyspecificity reagent, FACS + sequencing; frameworks hold sequencing errors. Summed up: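 Using colony PCR, genes from sorted yeast display clones were amplified, then sequenced on MiSeq at 2 × 250 and filtered by CDR length. The clones had been stained with 10% biotinylated, detergent-solubilized Sf9 membrane reagent for 1 hour at 4 °C and sorted by FACS into low and high (top ~1%) gates on anti-HA and streptavidin fluorescence. Polyreactivity labels come from the gate of origin.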
Consider “QVQLVESGGGLVQAGGSLRLSCAASGLTFDGNAMGWYRQAPGKERELVAAITSSGGNTYYADSVKGRFTISRDNAKNTVYLQMNSLKPEDTAVYYCAAGGYRWSARTWSWVRYDYWGQGTQVTVSS”, for which the “polyreactivity (PSR sort gate)” value is listed as “high polyreactivity”.
Under “QVQLVESGGGLVQAGGSLRLSCAASGSTFAAYAKGWYRQAPGKERELVAAISRSGGTTYYADSVKGRFTISRDNAKNTVYLQMNSLKPEDTAVYYCAAEQWYDNYLEYDYWGQGTQVTVSS” stands “high polyreactivity”; under “QVQLVESGGGLVQAGGSLRLTCAASGFIFTYNAMGWYRQAPGKERELVAAISWSGSRTNYADTVKGRFTISRDNAKHTVYLQMNSLKPEDTAVFYCAAKYKYRTYNYWGQGTQVTVSS”, “high polyreactivity”; under “QVQLVESGGGLVQAGGSLRLSCAASGYTFSWYAMGWYRQAPGKERELVAGIDTSGGSTYYADSVKGRFTISRDNAKNTVYLQMNSLKPEDTAVYYCAAGLLWYSWGFWYYEYGYWGQGTQVTVSS”, “low polyreactivity”.
As to “QVQLVESGGGIVQAGGSLRLSCAASGSTFYLYAMGWYRQAPGKERELVAAISTVGSTNYADSVNGRFTISRDNAKNTVYLQMNSLKPEDTAVYYCNAEYYGVVEYDYWGHGTQVTVSS”, the “polyreactivity (PSR sort gate)” value is listed as “low polyreactivity”.
The same measure for “QVQLVESGGGLVQAGGSLRLSCAASGSIFYYYPMGWYRQAPGKERELVAAINSVGSTYADSVKGRFTISRDNAKNTVYLQMNSLKPEDSAVYYCENYYWGQGTQVTVSS”: “low polyreactivity”; for “QVHLVESGGGLVQAGGSLRLSSAPSGLTLETNAMGWSRQAPGKERELVAGITYSGGTTYYADSVKGRFTISRDNAKNTVYLQMNSLKPEDTAVYYCAAHTSTSGHNFWGQGTQVTVSS”: “low polyreactivity”; for “QVQLVESAGGLVQAGGSLRLSCPASGRIFSIYGMGWYRQAPGKERELVAVISGSVGITYYADSVKGRFTISRDNAKNTVYLQMNSLKPEDTAVYFCNAKVRRRKYDYWGQGTQVTVSS”: “high polyreactivity”.
Under “QVQLVESGGGLVQAGGSLRLSCAASGSTFFDNAMGWYRQAPGKERELVAAISWSGARTYYADSVKGRFTISRDNAKNTVYLQMNSLKPEDTAVYYCAARFYVSNSRKSARNYWGQGTQVTVSS” stands “high polyreactivity”; under “QVQLVESGGGLVQAGGSLRLSCAASGRIFRVNAMGWYRQAPGKERELVAAINFSGTSTYYADSVKGRFTISRDNAKNTVYLQMNSLKPEDTAVYYCNTASYVSWYVHYYYWGQGTQVTVSS”, “low polyreactivity”; under “QVQLVESGGGLVKAGGSLRLICAASGSTFGGNDKGWYRHAPGKERELVDAISSGTSTNYADSVKGRFTISRDNAMNTVYLQMNSLKPEDTAVYYCNAGFWYRRTYDYWGQGTQVTVSS”, “low polyreactivity”.
For “QVQLVESGGGLVQAGGSLRLSCAASGSIFFTYAMGWYRQAPGKERELVAVISSNGARTYYADSVKGRFTISRDNAKNTVYLQMNSLKPEDPAVYYCAARSQGNYGWGQGTQVTVSS”, the “polyreactivity (PSR sort gate)” value was “high polyreactivity”.
The same measure for “QVQLVESGGGLVQAGGSLRLSCAASGRNFDRNAMGWSRQAPGKERELVARIDPGDDTNYADSVKGRFTISRDNAKNTVYLQMNSLKPEDTAVYYCATDPDYVLYRTAYYEYDYWGQGTQVTVSS”: “low polyreactivity”; for “QVQLVESGGGLVQAGGSLRLSCAASGIIFDYNAMGWYRQAPGKERELVDSIDSGCSTNYADSVKGSFTISRDNAKNTVYLQMNSLKPEDTAVYYCNADDTTVSPWYYYYQSYYWGQGTQVTVSS”: “low polyreactivity”.
Under “QVQLVESGGGLVQAGGSLRLSCAASGRIFELNARGWYSQAPGKERELVAVISSGGNTHYADSVKGRFTISRDNAKNTVYLQMNSLNPEDTAVYYCAAVASKHWGRDYWGQGTQVTVSS” stands “low polyreactivity”; under “QVQLVESGGGLVQAGGSLRLSCAASGIIFGFYAMGWYREAPGKERELVADITNDGGNTNYADSVKGRFTISRDNAKNTVYLQMNSLKPEDTAVYYCNADRTQVRNRYTYATFDYWGQGTQVTVSS”, “low polyreactivity”; under “QVQLVESGGGLVQAGGSLRLSCAASGRIFWHNAMGWYRQAPGQERELVAAITGGGSTYYADSVKGRFSISRDDAKNTVYLQMNSLKPEDTAVYYCATLGSLRYYWPGYDYWGQGTQVTVSS”, “low polyreactivity”.
As for “QVQLVESGGGVVQAGGSLRLSCAASGRIIPYYAMGWYRPAPGTERELVAAISWTDGTTFYADSVKGRFTISRDNAKNTVYLQMNSLKPEDTAVYYCAASVYQDKGYDYWGQGTQVTVSS”, the “polyreactivity (PSR sort gate)” value is recorded as “low polyreactivity”.
Under “QVQLVESGGGLVQAGGSLRLSCAASGRIFYYNAMGSYRQAPGKESELVAAIRRSGSRTYYADSVKGRFTISRDNSKNTVSLEMNSLKPEDTAVYYCAAKYASFAHHDSWGQGTQVTVSS” stands “high polyreactivity”; under “QVQLVESGGGLVQAGGSLRLSCAASGRIFTDNVMGWYRQAPGKERELVAAITRRGGSTYYADSVKGRFTISRDNAKNTVYLQMNSLKPEDSAVYYCNARGRLYGHLYDYWGQGTQVTVSS”, “low polyreactivity”.
Under “QVQLVESGGGLVQAGGSLRLSCAASGSTFKHYAMGWYRQAPGKERELVAAISSGGSTKYADSVKGRFTISRDNAKNTVYLQMNSLKPEDTAVYYCAARSFFKMYYWGQGTQVTVSS” stands “low polyreactivity”; under “QVQLVESGGGLVQAGGSLRLTCAASGRTFAWYAMGWYRQAPGKERELVAAISSGGSTYYADSVKGRFTISRDNAKNTVYLQMDSLKPEDTAVYYCAAEWHYIYAYDYWGQGTQVTVSS”, “low polyreactivity”.
For the sequence “QVQLVESGGGLVQAGGSLRLSCAASGYTFDYNAMGWYRQAPGKEREFVATITASGDSTYYADSVKGRFTISRDNAKNTVYLQMNSLKPEDTAVYYCATEKRDVYFTAKYDYWGQGTQVTVSS”, the “polyreactivity (PSR sort gate)” value is “low polyreactivity”.
Under “QVQLVESGGGLVQAGGSLRLSCAASGLTFVDYDMGWYRQAPGKERELVADINSGGYTYYADSVKGRFTISRDNAKNTVYLQMNSLKPEDTAVYYCAADDGWGYISSYDYEYWGQGTQVTVSS” stands “high polyreactivity”; under “QVQLVESGGGLVQAGGSLRLSCAASGSTSYRYAMGWYRQAPGKERELVAGITRSGGSTYYADSVKGRFTISRDNAKNTVYLQMNSLKPEDTAVYYCAAYYSRQYVGYGYWGQGTQVTVSS”, “high polyreactivity”.
Under “QVQLVESVGGLVQAGGSLRLSCAASGSIFKYYAMGWYRQEPGKERELVAAITIGGNTNYADSVKGRFTISRDNAKNTVYLQMNSLKPEDTAVYYCATGGYYSAIVYGGYDYWGQGTQVSVSS” stands “low polyreactivity”; under “QVQLVESGGRLVQAGGSLRLSCAPSGFIFGDNGIGGSRQSPGKEMELVAGINRRSGTYYADSVKGRFTISRDNAKNTVYLLMNSLKREDTAVYYCAARLDAYQSGRYYYWGQGTQVTLSS”, “high polyreactivity”; under “QVQLVESGGGLVQAGGSLRLSCAASGFIFAIYAMGWYRQAPGKERELVAAITSSSSTYADSVKGRFTISRDNAKNTVYLQMNSLKPEDTAVYYCAADTYSYRYSNDYWGQGTQVTVSS”, “low polyreactivity”.
The same measure for “QVQLVESGGGLVQAGGSLRLSCAASGSIFRFYAMGWYRQAPGKERELDAVITSTGRKYYADSVKGRFTISRDNAKNTGYLQMTSLKPEDTAVYYCNAAEAGKGAYAYDYWGQGTQVTVSS”: “low polyreactivity”; for “QVQLVESGGGLVQAGGSLRLSCAASGRTMWAYSMGWYRPAHGKERELVAAITGSGGSTYYADSVKGRFTISRDNAKNTVYLQMNSLKPEDTAVYYCAAYSRTLHYDSWGQGTHVTVSS”: “high polyreactivity”; for “QVQLEESGGGLVQAGGSLRLSCAASGRIFRANSMGWYRQEPGKERELVAAISFSGGGTYYADSVKGRFKISRDNAKNTVYLQMNCLKPEDTAVYYCAADWYVYSPYDYWGQGTQVTVSS”: “low polyreactivity”.
On to “QVQLVESGGGLVQAGRSLRLSCAASGSTLQNNGMGWYRQAPGKERELVAAISIGGDTNYADSVKGRFTISRDNAKNTEMNSMKPEDTAGYYCNTDYFGSQVVVIFDFWGQGTQVTVSS”, for which the “polyreactivity (PSR sort gate)” value is listed as “low polyreactivity”.
The same measure for “QVQLVESGGGLFQAGGSLRLSCAASGRTFHANAMGWYRQAPGKERELVARINWSGTSTYYADSVKGRFTISRDNAKNTVYLQMNSLKPEDTAVYYCAAGWIRQYSSLYDYWGQGTQVTVSS”: “high polyreactivity”.
Under “QDQLVESGGGLVQARGSLRLSCASSGSICDHYVMGWYRQAPGKERELVAAITSGDRTNYADSVKGRFTISRDKAKNTVYLQMNSLTPEDTEGYYCNADYQSYFYYTTWYYDYDYWGKGTQVTVSS” stands “low polyreactivity”; under “QVHLVESGGGLVQAGGSLRLRSPASGRTFDDNAMGWYRQAPGKESEMVAGITDNGGGTNYADSVKGRFTISRDNAKNTVYLQMSSLKPEDTAVYYCAADGKLVYVNGYNLYYWGQGTQVTVSS”, “low polyreactivity”.
The same measure for “QVQLVESGGGLVQAGGSLRLSCAASGRTFVYNAMGWYRQAPGKERELVAAISFGGGNTYYADSVKGRFTISRDNAKNTVYLQMNSLKPEYTAVYYCAARAGAGPLDYDYWGQGTQVTVSS”: “low polyreactivity”; for “QVQLVESGGGLVQAGGSLRLSCAASGFTFRTNAMGWYRQAPGKERELVAVISRRGGSTYYADSVKGRFTISRDNAKNTVYLQMNSLKPEDTGVYYCNAGDGTVGRTYYRAYDYWGQGTQVTVSS”: “high polyreactivity”; for “QVQLVESGGGLVQAGGSLRLSCAATGSIFKWYAMGWYRQEPGKERELVSAISKSGGSTYYADSVKGRFTISRDNAKNTVYLQINSLKPEDTAVYYCNAVYIGSRRRYEYDYWGEGTQVTVSS”: “high polyreactivity”.
As to “QVQLVESGGGLVQAGGSLRLSCAASGNIFSTYAMGWDRQAPGKERELVAAISSRGTSTYYADSVKGRFTISRDNAKNTVYLQMNSLKPEDTAVYYCNAVIALQLDYWGQGTQVTVSS”, the “polyreactivity (PSR sort gate)” value is reported as “high polyreactivity”.
“QVQLVESGGGLVQAGGSLRLSCAASGYIFGVYAMGWYRQAPGKERELVAAISYGVGSTSYADSVKGRFTISRDNAKNTVYLQMNSLKPEDTAVYYCAADVFFYVYEAYLLYYWGQGTQVTVSS”: the “polyreactivity (PSR sort gate)” value is on record as “low polyreactivity”.
The same measure for “HFQLVESGGGLVQAGGSLRLSCAASGFTFNDMGWYRLATGKERELVARIDSDDTTNYADSVKGRFTISRDNAKKTVYVLMNSLKPEDTAVYYCNKDYAWLSYQDYDYWGQGTQVTVSS”: “low polyreactivity”.
